According to article PMC11048322, “Weak Value Amplification-Based Biochip for Highly Sensitive Detection and Identification of Breast Cancer Exosomes”:

What was measured:
Settings in all cases: protein: native; label: Au NP (about 58 nm) via thiol
[1] = molecular target: T1, CD63 (on MDA-MB-231 exosomes) (UniProt P08962 2-238); assay: weak value amplification optical biosensor; multivalent Au NP-aptamer on exosomes; no significant CW shift; Au NP-aptamer dispersed in ultrapure water, flowed over exosomes captured on Zr-ionized glass; pH and temperature not stated
[2] = molecular target: T1, CD63 (on MDA-MB-231 exosomes); assay: weak value amplification optical biosensor; TEM; multivalent Au NP-aptamer on exosomes; Au NP-aptamer dispersed in ultrapure water, flowed over exosomes captured on Zr-ionized glass; pH and temperature not stated
[3] = molecular target: T2, EpCAM (on MDA-MB-231 exosomes) (UniProt P16422 24-314); assay: weak value amplification optical biosensor; multivalent Au NP-aptamer on exosomes; CW shift about 0.85 nm; Au NP-aptamer dispersed in ultrapure water, flowed over exosomes captured on Zr-ionized glass; pH and temperature not stated
T2 sequence: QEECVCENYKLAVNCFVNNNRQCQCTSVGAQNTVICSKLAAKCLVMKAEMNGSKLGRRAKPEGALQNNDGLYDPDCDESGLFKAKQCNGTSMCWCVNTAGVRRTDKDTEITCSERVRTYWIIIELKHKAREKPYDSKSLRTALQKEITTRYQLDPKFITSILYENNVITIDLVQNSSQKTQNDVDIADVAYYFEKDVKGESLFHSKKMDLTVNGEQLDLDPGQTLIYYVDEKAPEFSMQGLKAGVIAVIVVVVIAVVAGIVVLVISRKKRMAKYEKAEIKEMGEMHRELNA

T1 sequence (P08962 2-238): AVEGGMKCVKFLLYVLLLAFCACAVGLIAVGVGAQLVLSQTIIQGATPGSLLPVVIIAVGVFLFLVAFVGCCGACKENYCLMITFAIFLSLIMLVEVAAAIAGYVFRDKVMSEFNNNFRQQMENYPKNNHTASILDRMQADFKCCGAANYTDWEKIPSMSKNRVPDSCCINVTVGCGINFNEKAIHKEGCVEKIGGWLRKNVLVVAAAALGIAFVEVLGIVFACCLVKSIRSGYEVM

ACTCTTCACCCGCACATTCGCATCGCCCAAGC (ssDNA, 5'-SH C6) [Scrambled CD63 (SCD63)]
binding result [1]: no binding

CACCCCACCTCGCTCCCGTGACACTAATGCTA (ssDNA, 5'-SH C6) [CD63 aptamer]
binding result [2]: binds

CACTACAGAGGTTGCGTCTGTCCCACGTTGTCATGGGGGGTTGGCCTG (ssDNA, 5'-SH C6) [EpCAM aptamer]
binding result [3]: binds
